One data set concerns the target MCM8;MCM9 680 (Homo sapiens;Homo sapiens, UniProt Q9UJA3;Q9NXL9 1-840;1-680, |). Briefly: S1 nuclease protection.
For another data set, the target named is MCM8 WB;MCM9 680 WB (Homo sapiens;Homo sapiens, UniProt Q9UJA3;Q9NXL9 1-840;1-680, E519Q|E415Q). Briefly: S1 nuclease protection.
MCM8 WB;MCM9 680 WB, sequence (Q9UJA3 whole entry E519Q, chain 1 of 2): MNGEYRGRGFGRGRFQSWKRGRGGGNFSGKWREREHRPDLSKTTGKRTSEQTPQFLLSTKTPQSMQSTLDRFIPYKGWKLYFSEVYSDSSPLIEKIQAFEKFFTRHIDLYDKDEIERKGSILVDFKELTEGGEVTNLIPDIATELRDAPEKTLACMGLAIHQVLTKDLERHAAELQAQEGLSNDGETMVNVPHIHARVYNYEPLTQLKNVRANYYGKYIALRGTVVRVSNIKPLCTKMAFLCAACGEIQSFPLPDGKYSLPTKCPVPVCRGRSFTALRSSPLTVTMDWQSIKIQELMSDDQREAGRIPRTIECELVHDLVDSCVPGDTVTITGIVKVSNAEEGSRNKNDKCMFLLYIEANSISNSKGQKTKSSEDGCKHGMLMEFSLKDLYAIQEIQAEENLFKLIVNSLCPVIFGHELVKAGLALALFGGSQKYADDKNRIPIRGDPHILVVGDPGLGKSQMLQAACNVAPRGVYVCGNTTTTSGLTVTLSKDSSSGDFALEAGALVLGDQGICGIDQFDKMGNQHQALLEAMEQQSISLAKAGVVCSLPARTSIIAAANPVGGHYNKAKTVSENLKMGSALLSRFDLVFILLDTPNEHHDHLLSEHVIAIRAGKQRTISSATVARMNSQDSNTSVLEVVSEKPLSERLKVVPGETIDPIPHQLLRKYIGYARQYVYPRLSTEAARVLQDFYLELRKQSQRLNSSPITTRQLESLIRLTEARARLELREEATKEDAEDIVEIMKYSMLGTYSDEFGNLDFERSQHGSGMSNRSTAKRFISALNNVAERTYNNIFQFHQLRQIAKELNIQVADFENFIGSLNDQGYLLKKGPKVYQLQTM
MCM8 WB;MCM9 680 WB, sequence (Q9NXL9 1-680 E415Q, chain 2 of 2): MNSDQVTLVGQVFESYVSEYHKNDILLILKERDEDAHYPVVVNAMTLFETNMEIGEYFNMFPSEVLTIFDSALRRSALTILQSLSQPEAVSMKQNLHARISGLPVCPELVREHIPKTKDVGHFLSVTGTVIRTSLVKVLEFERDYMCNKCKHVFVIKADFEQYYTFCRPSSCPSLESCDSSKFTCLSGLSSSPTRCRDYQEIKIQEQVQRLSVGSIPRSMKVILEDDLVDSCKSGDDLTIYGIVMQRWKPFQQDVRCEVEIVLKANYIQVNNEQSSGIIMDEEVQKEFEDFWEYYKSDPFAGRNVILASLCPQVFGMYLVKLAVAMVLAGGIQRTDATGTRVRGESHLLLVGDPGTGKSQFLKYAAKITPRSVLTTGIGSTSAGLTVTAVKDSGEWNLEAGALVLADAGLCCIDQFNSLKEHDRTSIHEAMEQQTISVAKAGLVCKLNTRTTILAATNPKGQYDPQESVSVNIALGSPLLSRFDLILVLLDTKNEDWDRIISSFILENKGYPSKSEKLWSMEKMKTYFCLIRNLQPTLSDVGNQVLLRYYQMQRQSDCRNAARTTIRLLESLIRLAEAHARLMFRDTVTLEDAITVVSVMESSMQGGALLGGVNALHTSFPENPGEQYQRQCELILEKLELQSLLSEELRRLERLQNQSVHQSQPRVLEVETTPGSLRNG

MCM8;MCM9 680, sequence (Q9UJA3 whole entry, chain 1 of 2): as the sequence (Q9UJA3 whole entry E519Q, chain 1 of 2) above, with Q519E counted along it
MCM8;MCM9 680, sequence (Q9NXL9 1-680, chain 2 of 2): as the sequence (Q9NXL9 1-680 E415Q, chain 2 of 2) above, with Q415E counted along it

B1: 3' long arm fork (DNA228/15Cy3) (mixed)
DNA 1: TTTTTTTTTTGCCGGTCGGGGTGGGTGGGAAGCGTAGGGAGAGGTG
DNA 2: CACCTCTCCCTACGCTTCCCACCCACCCCGACCGGCATCTGCTATGGTACGCTGAGCGAGAGTAGC
B1: the binding result with MCM8;MCM9 680 and in the data set with MCM8 WB;MCM9 680 WB was “binds” in each case.

The values are drawn from PMC10415141.
